The values below come from article PMC12582335.

For assay [1], the target named is SARS-CoV-2 Wuhan spike protein trimer (AcroBiosystems) (SARS-CoV-2 (Wuhan)) (UniProt P0DTC2). In words: ELISA; Wuhan spike 2 µg/mL coated; rCL-11 3 µg/mL with L-fucose or D-galactose (0 to 200 mM) or 20 mM EDTA, 18 h at 4 °C.
Assay [2] shares this target. In words: ELISA; spike trimer (Wuhan or Omicron BA.1) or BSA coated on Nunc MaxiSorp plates in carbonate/bicarbonate buffer, 18 h at 4 °C; rCL-11 (CHO) in solution, either titrated on 2 µg/mL spike or 3 µg/mL on a range of spike; detected with rabbit anti-human CL-11 and HRP anti-rabbit IgG.
Assay [3] deals with SARS-CoV-2 Omicron BA.1 spike protein trimer (AcroBiosystems) (SARS-CoV-2 (Omicron BA.1)) (UniProt P0DTC2). Described as above.

A value given as a limit tells only on which side of the number the result lay.

With “recombinant collectin-11 (rCL-11), CHO-expressed (from UniProt Q9BWP8 26-271) (natural protein)”, in assay [1], the percent inhibition by L-fucose was over 90%. The figures for the EC50 in assay [2] and in assay [3] were 7.6 nM and 6 nM, respectively.
